Values belong to the molecule of their own block, whether it stands above or below them.
How the values were obtained:
[1] = biological target: Reconstituted nicked mononucleosome (recombinant histone octamer on 601.2 DNA with a site-specific nick) (Xenopus laevis | not stated); test: Ni-NTA nanogold labelling with negative-stain electron microscopy; full-length His-tagged cPARP3 incubated for 30 min with intact or nicked nucleosomes; Ni-NTA-conjugated 5 nm gold added at 1:10 (cPARP3-nucleosomes:Ni-gold); negative stain with 2% uranyl acetate
[2] = tested on: His-tagged cPARP3 (Gallus gallus); test: negative-stain EM with Ni-NTA nanogold; details: NMR: 20 mM Tris-HCl pH 7.0, 125 mM NaCl, 1 mM TCEP, 10% D2O, 303 K, ~300 uM protein, EMSA and EM buffers not given in material
cPARP3 NTD-WGR (1-169) [3] = biological target: T1, cPARP3 NTD-WGR (1-169) (Gallus gallus, UniProt E1BSI0 1-169); test: NMR (1H-15N HSQC titration); protein:DNA 5:1 to 1:2; NMR: 20 mM Tris-HCl pH 7.0, 125 mM NaCl, 1 mM TCEP, 10% D2O, 303 K, ~300 uM protein; EMSA and EM buffers not given in material; details: protein: recombinant; tags: N-terminal His tag (pNIC28-Bsa4) removed by TEV; 15N/13C labelled; nicked duplex: S42 (10 nt) and S43 (9 nt) annealed to S41
T1 sequence: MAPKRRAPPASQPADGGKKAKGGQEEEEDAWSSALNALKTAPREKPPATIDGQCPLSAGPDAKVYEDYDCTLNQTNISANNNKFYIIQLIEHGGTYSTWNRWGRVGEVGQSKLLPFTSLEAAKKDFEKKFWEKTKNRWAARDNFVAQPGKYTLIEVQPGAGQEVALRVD

cPARP3 NTD-WGR (1-169) [4] = biological target: T1, cPARP3 NTD-WGR (1-169); test: NMR (1H-15N HSQC); NMR: 20 mM Tris-HCl pH 7.0, 125 mM NaCl, 1 mM TCEP, 10% D2O, 303 K, ~300 uM protein; EMSA and EM buffers not given in material; details: protein: recombinant; tags: N-terminal His tag (pNIC28-Bsa4) removed by TEV; 15N/13C labelled; 9 bp with 3' overhang 10 nt on S41

- percent of nucleosomes with a co-locating gold particle [1]: 85%
Molecule: Full-length His-tagged chicken PARP3 (from UniProt E1BSI0 1-526) (enzyme)

Molecule: intact 601.2 mononucleosome
- binding signal (% of nucleosomes with gold particle) [2]: 30

Molecule: nicked 601.2 mononucleosome
- binding signal (% of nucleosomes with gold particle) ([2]; single nick at nucleotide 45 (Nt.BsmAI)): 85

B1: 19-bp duplex with 5'-phosphorylated nick (Gap0 NMR) (dsDNA)
DNA 1: GCACAGCCGTGAGCGATGC
DNA 2: GCATCGCTCA
DNA 3: CGGCTGTGC
modifications: 5'-phosphate on S43
- binding result (cPARP3 NTD-WGR (1-169) [3]): binds

B2: 10-nt 3'-overhang duplex with recessed 5'-phosphate (dsDNA)
DNA 1: GCACAGCCGTGAGCGATGC
DNA 2: CGGCTGTGC
modifications: 5'-phosphate on S43
- binding result (cPARP3 NTD-WGR (1-169) [4]): binds
